Measurements published in publication PMC5118791.

How the values were obtained:
[1] = biological target: recombinant Factor VIIa (rFVIIa)
[2] = biological target: recombinant Factor VIIa (rFVIIa); test: BLI; Octet Red, Ni-NTA biosensors, 37 °C, 1000 rpm; association 180 sec, dissociation 10 min; 1:1 model, global fit; the legend of Figure 4b says rFVIIa was immobilised

Sequence of recombinant Factor VIIa (rFVIIa) (P08709 whole entry): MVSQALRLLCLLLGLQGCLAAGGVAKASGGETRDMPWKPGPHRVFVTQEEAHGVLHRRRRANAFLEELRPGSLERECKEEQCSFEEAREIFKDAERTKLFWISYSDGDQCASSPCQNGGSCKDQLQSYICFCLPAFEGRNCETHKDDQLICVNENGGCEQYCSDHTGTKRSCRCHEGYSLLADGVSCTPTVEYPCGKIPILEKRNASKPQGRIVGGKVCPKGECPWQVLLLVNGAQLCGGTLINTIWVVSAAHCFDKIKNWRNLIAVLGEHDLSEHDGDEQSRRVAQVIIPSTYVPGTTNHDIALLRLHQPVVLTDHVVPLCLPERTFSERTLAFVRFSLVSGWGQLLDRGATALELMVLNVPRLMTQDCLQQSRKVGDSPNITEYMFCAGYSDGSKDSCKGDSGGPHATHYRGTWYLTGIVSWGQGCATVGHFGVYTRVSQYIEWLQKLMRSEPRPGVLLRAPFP

Binder ALCDDPRVDRWYCQFVEG [E-76 peptide] has a prothrombin time (PT) in citrated human plasma, maximal fold prolongation over normal clotting time [1] of 3 fold and a Kd [2] of 6.2 nM.
